In paper PMC5414002 (mBio, 2017):

Target: the molecule itself
Experiment: cryo-EM structure; EcFtsZ filaments, 0.5 mg/ml in 50 mM HEPES-KOH, 100 mM potassium acetate, 5 mM magnesium acetate, pH 7.7, 20°C, 0.1 mM GMPCPP; helical reconstruction in RELION

B1: Full-length, untagged wild-type Escherichia coli FtsZ (natural protein, UniProt P0A9A6 1-383, looked up)
chain: MFEPMELTNDAVIKVIGVGGGGGNAVEHMVRERIEGVEFFAVNTDAQALRKTAVGQTIQIGSGITKGLGAGANPEVGRNAADEDRDALRAALEGADMVFIAAGMGGGTGTGAAPVVAEVAKDLGILTVAVVTKPFNFEGKKRMAFAEQGITELSKHVDSLITIPNDKLLKVLGRGISLLDAFGAANDVLKGAVQGIAELITRPGLMNVDFADVRTVMSEMGYAMMGSGVASGEDRAEEAAEMAISSPLLEDIDLSGARGVLVNITAGFDLRLDEFETVGNTIRAFASDNATVVIGTSLDPDMNDELRVTVVATGIGMDKRPEITLVTNKQVQQPVMDRYQQHGMAPLTQEQKPVAKVVNDNAPQTAKEPDYLDIPAFLRKQAD
notes: also called EcFtsZ; source: E. coli C41(DE3), purified (GTP- and calcium-induced precipitation, anion exchange)
- binding result: binds
